Laboratory results reported in PMC6679477, “Optimization of a nicotine degrading enzyme for potential use in treatment of nicotine addiction” (BMC Biotechnology, 2019).

B1: wt NicA2 (Pseudomonas putida S16) (protein)
chain: MSDKTKTNEGFSRRSFIGSAAVVTAGVAGLGAIDAASATQKTNRASTVKGGFDYDVVVVGGGFAGATAARECGLQGYRTLLLEARSRLGGRTFTSRFAGQEIEFGGAWVHWLQPHVWAEMQRYGLGVVEDPLTNLDKTLIMYNDGSVESISPDEFGKNIRIAFEKLCHDAWEVFPRPHEPMFTERARELDKSSVLDRIKTLGLSRLQQAQINSYMALYAGETTDKFGLPGVLKLFACGGWNYDAFMDTETHYRIQGGTIGLINAMLTDSGAEVRMSVPVTAVEQVNGGVKIKTDDDEIITAGVVVMTVPLNTYKHIGFTPALSKGKQRFIKEGQLSKGAKLYVHVKQNLGRVFAFADEQQPLNWVQTHDYSDELGTILSITIARKETIDVNDRDAVTREVQKMFPGVEVLGTAAYDWTADPFSLGAWAAYGVGQLSRLKDLQAAEGRILFAGAETSNGWHANIDGAVESGLRAGREVKQLLS
notes: full-length, C-terminal His6 tag kept, expressed in E. coli, purified, 52 kDa on SDS-PAGE; FAD enzyme

Test system: T1, CN1CCC[C@H]1c1cccnc1
T1 construct: full-length, C-terminal His6 tag kept, expressed in E. coli, purified, 52 kDa on SDS-PAGE; FAD enzyme
Assay: residual nicotine by GC; progress curves fitted in KinTek, Km derived from kcat/Km and kcat
Assay type: biochemical, Pseudomonas putida
Settings: rat serum, 37 °C, 250 nM (40 ng/mL) nicotine, O2 as oxidant
Source text: (§1) residual nicotine by GC; progress curves fitted in KinTek, Km derived from kcat/Km and kcat on wt NicA2

Row | Molecule | Km | kcat | kcat/Km
1 | wt NicA2 (Pseudomonas putida S16; A107G) | 0.335 µM | 0.053 s⁻¹ | 160000 M⁻¹ s⁻¹
2 | wt NicA2 (Pseudomonas putida S16; A107R) | 0.83 µM | 0.159 s⁻¹ | 190000 M⁻¹ s⁻¹
3 | wt NicA2 (Pseudomonas putida S16; A107T) | 0.285 µM | 0.05 s⁻¹ | 180000 M⁻¹ s⁻¹
4 | wt NicA2 (Pseudomonas putida S16; A426C) | 0.23 µM | 0.03 s⁻¹ | 130000 M⁻¹ s⁻¹
5 | wt NicA2 (Pseudomonas putida S16; F104I) | 0.24 µM | 0.039 s⁻¹ | 160000 M⁻¹ s⁻¹
6 | wt NicA2 (Pseudomonas putida S16; F104R) | 0.27 µM | 0.041 s⁻¹ | 150000 M⁻¹ s⁻¹
7 | wt NicA2 (Pseudomonas putida S16; F104S) | 0.25 µM | 0.031 s⁻¹ | 130000 M⁻¹ s⁻¹
8 | wt NicA2 (Pseudomonas putida S16; F104T) | 0.33 µM | 0.055 s⁻¹ | 170000 M⁻¹ s⁻¹
9 | wt NicA2 (Pseudomonas putida S16; F355H) | 0.22 µM | 0.029 s⁻¹ | 130000 M⁻¹ s⁻¹
10 | wt NicA2 (Pseudomonas putida S16; G106A) | 0.28 µM | 0.031 s⁻¹ | 110000 M⁻¹ s⁻¹

Substrate: CN1CCC[C@H]1c1cccnc1
Assay: as above
Assay type: biochemical, Pseudomonas putida
Settings: rat serum, 37 °C, 250 nM (40 ng/mL) nicotine, O2 as oxidant
Source text: as §1

Row | Molecule | Km | kcat | kcat/Km
11 | B1 | 0.24 µM | 0.015 s⁻¹ | 64000 M⁻¹ s⁻¹
